The values below come from IntAct's records for PubMed 17595167.

B1: PAN2-PAN3 deadenylation complex subunit PAN3 (Homo sapiens), Q58A45 (parent)
chain: MNSGGGLPPPSAAASPSSSSLAAAVAVVAPPGVGGVPGGAAVGVKLKYCRYYAKDKTCFYGEECQFLHEDPAAGAAPGLGLHSNSVPLALAGAPVAGFPPGAVAGGGAGPPPGPKKPDLGDPGTGAAAGGGGSSGGLDGPRLAIPGMDGGALTDTSLTDSYFSTSFIGVNGFGSPVETKYPLMQRMTNSSSSPSLLNDSAKPYSAHDPLTSPASSLFNDFGALNISQRRKPRKYRLGMLEERLVPMGSKARKAKNPIGCLADRCKSGVPINMVWWNRVTENNLQTPNPTASEFIPKGGSTSRLSNVSQSNMSAFSQVFSHPSMGSPATAGLAPGMSLSAGSSPLHSPKITPHTSPAPRRRSHTPNPASYMVPSSASTSVNNPVSQTPSSGQVIQKETVGGTTYFYTDTTPAPLTGMVFPNYHIYPPTAPHVAYMQPKANAPSFFMADELRQELINRHLITMAQIDQADMPAVPTEVDSYHSLFPLEPLPPPNRIQKSSNFGYITSCYKAVNSKDDLPYCLRRIHGFRLVNTKCMVLVDMWKKIQHSNIVTLREVFTTKAFAEPSLVFAYDFHAGGETMMSRHFNDPNADAYFTKRKWGQHEGPLPRQHAGLLPESLIWAYIVQLSSALRTIHTAGLACRVMDPTKILITGKTRLRVNCVGVFDVLTFDNSQNNNPLALMAQYQQADLISLGKVVLALACNSLAGIQRENLQKAMELVTINYSSDLKNLILYLLTDQNRMRSVNDIMPMIGARFYTQLDAAQMRNDVIEEDLAKEVQNGRLFRLLAKLGTINERPEFQKDPTWSETGDRYLLKLFRDHLFHQVTEAGAPWIDLSHIISCLNKLDAGVPEKISLISRDEKSVLVVTYSDLKRCFENTFQELIAAANGQL

The variants in the assay derive from B1. To be noted: with pabp1_human PABPC1, P11940.
pabp1_human PABPC1, P11940, sequence (P11940 whole entry): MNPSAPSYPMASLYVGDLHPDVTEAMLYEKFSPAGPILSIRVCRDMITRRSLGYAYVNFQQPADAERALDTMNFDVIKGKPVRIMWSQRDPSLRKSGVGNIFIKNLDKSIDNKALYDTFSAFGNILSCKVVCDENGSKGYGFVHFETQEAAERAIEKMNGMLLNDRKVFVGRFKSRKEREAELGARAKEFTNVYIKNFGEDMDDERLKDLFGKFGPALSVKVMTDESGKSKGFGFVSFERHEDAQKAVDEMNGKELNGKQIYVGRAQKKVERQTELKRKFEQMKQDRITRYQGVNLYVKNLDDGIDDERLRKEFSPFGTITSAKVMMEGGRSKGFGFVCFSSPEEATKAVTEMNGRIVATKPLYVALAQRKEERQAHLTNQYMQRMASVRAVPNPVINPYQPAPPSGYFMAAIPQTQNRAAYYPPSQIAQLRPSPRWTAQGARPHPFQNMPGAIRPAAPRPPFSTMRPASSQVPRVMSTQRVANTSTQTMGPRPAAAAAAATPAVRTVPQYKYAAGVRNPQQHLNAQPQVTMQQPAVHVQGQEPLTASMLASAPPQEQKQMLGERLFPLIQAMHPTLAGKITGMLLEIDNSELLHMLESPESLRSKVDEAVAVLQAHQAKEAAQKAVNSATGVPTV
F293A: the “effect of a mutation on the interaction” value was “decreasing interaction”.
